# Data from article PMC3476531, “Synergy of Peptide and Sugar in O-GlcNAcase Substrate Recognition” (Chemistry & Biology, 2012).
# *: point of attachment. βGlcNAc = CC(=O)N[C@@H]1[C@@H](O)[C@H](O)[C@@H](CO)O[C@H]1*
# T1: human O-GlcNAcase (hOGA) Y69Q (human) (UniProt O60502)
# T1 sequence: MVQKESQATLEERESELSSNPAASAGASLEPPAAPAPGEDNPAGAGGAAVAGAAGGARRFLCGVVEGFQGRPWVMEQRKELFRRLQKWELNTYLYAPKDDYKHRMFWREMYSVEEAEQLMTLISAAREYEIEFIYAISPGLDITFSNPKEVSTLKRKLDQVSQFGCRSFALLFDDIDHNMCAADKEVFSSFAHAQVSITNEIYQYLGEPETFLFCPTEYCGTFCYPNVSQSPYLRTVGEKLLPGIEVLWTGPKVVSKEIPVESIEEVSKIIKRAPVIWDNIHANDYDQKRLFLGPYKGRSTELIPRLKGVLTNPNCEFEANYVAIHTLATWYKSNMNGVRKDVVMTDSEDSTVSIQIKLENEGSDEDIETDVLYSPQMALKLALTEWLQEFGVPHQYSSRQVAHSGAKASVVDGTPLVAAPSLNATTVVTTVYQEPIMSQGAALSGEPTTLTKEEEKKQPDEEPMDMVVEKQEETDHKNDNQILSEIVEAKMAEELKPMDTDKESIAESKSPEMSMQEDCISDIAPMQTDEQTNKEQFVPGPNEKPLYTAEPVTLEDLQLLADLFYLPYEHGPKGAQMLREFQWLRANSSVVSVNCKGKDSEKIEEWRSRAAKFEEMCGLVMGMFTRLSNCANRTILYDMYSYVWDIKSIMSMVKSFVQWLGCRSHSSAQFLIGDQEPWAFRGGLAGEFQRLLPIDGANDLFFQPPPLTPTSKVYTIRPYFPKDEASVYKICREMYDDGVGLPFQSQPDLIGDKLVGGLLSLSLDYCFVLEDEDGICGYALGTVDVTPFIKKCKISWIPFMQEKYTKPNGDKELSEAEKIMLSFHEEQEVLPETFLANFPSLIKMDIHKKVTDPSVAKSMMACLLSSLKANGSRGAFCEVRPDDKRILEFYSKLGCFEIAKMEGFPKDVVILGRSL
# T2: human O-GlcNAcase (hOGA) Y69S (human) (UniProt O60502)
# T2 sequence: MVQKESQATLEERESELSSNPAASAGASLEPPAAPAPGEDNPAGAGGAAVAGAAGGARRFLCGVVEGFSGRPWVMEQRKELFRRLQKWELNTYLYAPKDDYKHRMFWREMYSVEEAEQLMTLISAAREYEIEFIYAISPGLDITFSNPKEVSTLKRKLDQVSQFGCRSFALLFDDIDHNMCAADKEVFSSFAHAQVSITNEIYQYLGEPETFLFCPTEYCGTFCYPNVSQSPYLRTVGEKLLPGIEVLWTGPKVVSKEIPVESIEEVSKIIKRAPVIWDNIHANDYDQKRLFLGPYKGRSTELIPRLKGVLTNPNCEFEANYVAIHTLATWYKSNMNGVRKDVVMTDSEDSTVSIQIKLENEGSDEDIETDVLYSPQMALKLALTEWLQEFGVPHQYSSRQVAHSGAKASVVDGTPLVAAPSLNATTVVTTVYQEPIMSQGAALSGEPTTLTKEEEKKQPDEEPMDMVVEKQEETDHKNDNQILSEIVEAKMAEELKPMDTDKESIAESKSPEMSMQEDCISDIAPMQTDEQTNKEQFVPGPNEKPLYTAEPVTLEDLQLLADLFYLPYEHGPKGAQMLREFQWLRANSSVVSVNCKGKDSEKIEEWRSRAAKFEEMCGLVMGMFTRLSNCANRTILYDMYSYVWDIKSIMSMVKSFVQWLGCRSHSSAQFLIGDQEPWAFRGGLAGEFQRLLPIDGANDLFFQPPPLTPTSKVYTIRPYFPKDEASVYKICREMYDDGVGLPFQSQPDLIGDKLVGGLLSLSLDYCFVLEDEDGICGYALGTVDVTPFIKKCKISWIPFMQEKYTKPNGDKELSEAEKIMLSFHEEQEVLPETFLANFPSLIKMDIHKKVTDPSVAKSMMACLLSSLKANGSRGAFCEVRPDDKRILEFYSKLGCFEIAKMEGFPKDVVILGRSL
# T3: human O-GlcNAcase (hOGA) Y69K (human) (UniProt O60502)
# T3 sequence: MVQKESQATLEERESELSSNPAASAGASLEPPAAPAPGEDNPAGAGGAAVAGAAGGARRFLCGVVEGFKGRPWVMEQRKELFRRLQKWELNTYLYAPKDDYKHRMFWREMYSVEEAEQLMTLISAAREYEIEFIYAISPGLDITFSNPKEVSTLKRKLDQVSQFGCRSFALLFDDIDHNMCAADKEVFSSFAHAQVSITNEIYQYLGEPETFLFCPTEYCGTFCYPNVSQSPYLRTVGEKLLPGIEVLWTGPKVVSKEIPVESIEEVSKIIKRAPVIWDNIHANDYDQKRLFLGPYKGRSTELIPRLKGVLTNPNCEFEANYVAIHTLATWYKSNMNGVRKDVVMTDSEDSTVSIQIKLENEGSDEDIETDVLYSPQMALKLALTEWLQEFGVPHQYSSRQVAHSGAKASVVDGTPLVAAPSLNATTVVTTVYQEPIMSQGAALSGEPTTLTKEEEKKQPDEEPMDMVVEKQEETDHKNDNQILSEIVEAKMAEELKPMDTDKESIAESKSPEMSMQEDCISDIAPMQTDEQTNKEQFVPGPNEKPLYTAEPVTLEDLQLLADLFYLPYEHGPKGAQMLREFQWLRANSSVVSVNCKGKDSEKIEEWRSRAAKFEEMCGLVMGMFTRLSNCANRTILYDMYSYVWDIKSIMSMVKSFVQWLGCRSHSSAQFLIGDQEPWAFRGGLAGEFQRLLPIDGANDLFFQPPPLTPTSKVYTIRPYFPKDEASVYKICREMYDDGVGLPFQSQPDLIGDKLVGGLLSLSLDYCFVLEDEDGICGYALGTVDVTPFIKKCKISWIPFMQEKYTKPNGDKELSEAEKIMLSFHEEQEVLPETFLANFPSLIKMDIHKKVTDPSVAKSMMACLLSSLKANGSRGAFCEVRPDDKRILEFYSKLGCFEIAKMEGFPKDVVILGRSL
# T4: human O-GlcNAcase (hOGA) Y69F (human) (UniProt O60502)
# T4 sequence: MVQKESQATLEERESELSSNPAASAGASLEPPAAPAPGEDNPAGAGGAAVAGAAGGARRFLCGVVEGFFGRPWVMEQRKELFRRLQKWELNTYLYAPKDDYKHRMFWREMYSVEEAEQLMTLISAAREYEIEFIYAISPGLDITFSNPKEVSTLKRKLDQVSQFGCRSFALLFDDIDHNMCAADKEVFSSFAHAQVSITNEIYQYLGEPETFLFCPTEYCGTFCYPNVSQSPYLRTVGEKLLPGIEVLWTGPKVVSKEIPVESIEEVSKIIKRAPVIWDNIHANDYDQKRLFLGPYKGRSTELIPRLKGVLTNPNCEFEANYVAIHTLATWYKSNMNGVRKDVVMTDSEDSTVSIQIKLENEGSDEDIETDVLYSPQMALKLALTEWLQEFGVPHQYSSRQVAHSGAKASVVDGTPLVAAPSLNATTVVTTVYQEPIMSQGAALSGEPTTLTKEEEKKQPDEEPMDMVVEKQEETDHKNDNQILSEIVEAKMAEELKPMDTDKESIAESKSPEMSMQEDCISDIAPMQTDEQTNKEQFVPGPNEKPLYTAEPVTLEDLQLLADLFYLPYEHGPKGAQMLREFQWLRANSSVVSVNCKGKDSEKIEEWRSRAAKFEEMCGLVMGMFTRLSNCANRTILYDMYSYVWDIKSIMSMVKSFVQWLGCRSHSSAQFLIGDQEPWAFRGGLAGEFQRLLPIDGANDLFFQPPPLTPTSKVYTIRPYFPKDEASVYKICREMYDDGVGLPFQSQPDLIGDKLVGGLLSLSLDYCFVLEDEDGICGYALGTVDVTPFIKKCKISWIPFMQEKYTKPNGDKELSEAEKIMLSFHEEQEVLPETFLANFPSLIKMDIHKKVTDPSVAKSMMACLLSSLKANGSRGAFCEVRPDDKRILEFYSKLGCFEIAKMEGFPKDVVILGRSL
# T5: human O-GlcNAcase (hOGA), wild-type (human) (UniProt O60502)
# T5 sequence: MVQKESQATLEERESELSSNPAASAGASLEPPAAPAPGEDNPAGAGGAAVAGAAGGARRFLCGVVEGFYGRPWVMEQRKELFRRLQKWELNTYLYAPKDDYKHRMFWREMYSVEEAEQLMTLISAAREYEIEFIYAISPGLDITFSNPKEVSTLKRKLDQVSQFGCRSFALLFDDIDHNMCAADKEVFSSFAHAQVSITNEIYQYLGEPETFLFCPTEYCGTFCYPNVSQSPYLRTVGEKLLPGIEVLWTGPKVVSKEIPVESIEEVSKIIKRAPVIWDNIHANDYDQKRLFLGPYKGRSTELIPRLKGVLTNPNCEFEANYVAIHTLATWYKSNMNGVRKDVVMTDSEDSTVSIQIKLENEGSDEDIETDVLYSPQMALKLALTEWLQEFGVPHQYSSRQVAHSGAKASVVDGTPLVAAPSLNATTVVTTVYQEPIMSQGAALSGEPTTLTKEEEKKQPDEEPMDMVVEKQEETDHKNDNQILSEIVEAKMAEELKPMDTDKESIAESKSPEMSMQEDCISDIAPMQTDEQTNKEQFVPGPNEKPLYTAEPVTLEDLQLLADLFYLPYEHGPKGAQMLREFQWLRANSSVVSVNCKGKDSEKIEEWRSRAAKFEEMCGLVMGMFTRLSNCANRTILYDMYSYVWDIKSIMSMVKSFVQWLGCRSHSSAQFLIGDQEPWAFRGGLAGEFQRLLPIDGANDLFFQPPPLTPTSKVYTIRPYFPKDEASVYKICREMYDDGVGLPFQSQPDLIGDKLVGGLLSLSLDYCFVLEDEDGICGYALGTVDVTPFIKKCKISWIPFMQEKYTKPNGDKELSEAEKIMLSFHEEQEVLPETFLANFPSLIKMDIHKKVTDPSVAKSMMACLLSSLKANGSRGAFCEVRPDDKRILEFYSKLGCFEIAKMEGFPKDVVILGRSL
# How the values were obtained:
# [1] = target: T1, human O-GlcNAcase (hOGA) Y69Q (human)
# [2] = target: T2, human O-GlcNAcase (hOGA) Y69S (human)
# [3] = target: T3, human O-GlcNAcase (hOGA) Y69K (human)
# [4] = target: T4, human O-GlcNAcase (hOGA) Y69F (human)
# [5] = target: T5, human O-GlcNAcase (hOGA), wild-type (human)
# [6] = target: T5, human O-GlcNAcase (hOGA), wild-type (human); remark: listed apart in the source
binder,measurement,setting,value
VAHSGAK [hOGA peptide VAHS(O-GlcNAc)GAK],KM of the glycopeptide substrate (substrate competition assay with 4MU-GlcNAc as reporter substrate),[1],> 4000 µM
same,KM of the glycopeptide substrate (substrate competition assay with 4MU-GlcNAc as reporter substrate),[2],> 4000 µM
same,KM of the glycopeptide substrate (substrate competition assay with 4MU-GlcNAc as reporter substrate),[3],> 4000 µM
same,KM of the glycopeptide substrate (substrate competition assay with 4MU-GlcNAc as reporter substrate),[4],1200 µM
Ac-QLWVDS(βGlcNAc)TPPPG-NH2 (SMILES CC(=O)N[C@H]1[C@H](OC[C@H](NC(=O)[C@H](CC(=O)O)NC(=O)[C@@H](NC(=O)[C@H](Cc2c[nH]c3ccccc23)NC(=O)[C@H](CC(C)C)NC(=O)[C@H](CCC(N)=O)NC(C)=O)C(C)C)C(=O)N[C@H](C(=O)N2CCC[C@H]2C(=O)N2CCC[C@H]2C(=O)N2CCC[C@H]2C(=O)NCC(N)=O)[C@@H](C)O)O[C@H](CO)[C@@H](O)[C@@H]1O) [p53 peptide QLWVDS(O-GlcNAc)TPPPG],KM of the glycopeptide substrate (substrate competition assay with 4MU-GlcNAc as reporter substrate),[5],21 µM
"Ac-VPYS(βGlcNAc)SAQ-NH2 (SMILES CC(=O)N[C@H]1[C@H](OC[C@H](NC(=O)[C@H](Cc2ccc(O)cc2)NC(=O)[C@@H]2CCCN2C(=O)[C@@H](NC(C)=O)C(C)C)C(=O)N[C@@H](CO)C(=O)N[C@@H](C)C(=O)N[C@@H](CCC(N)=O)C(N)=O)O[C@H](CO)[C@@H](O)[C@@H]1O) [TAB1 peptide (Ser395) VPYS(O-GlcNAc)SAQ, original sequence]",KM (hOGA) of the glycopeptide substrate (substrate competition assay with 4MU-GlcNAc as reporter substrate),[6],4100 µM
"VPHSSAQ [TAB1 peptide (Ser395) VPHS(O-GlcNAc)SAQ, altered sequence]",KM (hOGA) of the glycopeptide substrate (substrate competition assay with 4MU-GlcNAc as reporter substrate),[6],810 µM
